One may read the Kd as the free concentration of one partner at which half of the binding sites on the other are occupied at equilibrium, for simple one-to-one binding.

Where no end group is shown, it is not given here. [ ]: non-standard residue; d: D form. Arg(Me2s) = CN=C(NC)NCCC[C@H](N)C(=O)O

Test [1] has as its target T1, Krimper eTud1 (residues 272-512) (Drosophila melanogaster, UniProt A1ZAC4).
T1 construct: Krimper eTud1 (residues 272-512) was cloned into a self-modified pSumo vector; 10xHis (N, cleaved yes); yeast SUMO (N, cleaved yes); made in house; host or cells: E. coli BL21(DE3) Rosetta
T1 sequence (A1ZAC4 272-512): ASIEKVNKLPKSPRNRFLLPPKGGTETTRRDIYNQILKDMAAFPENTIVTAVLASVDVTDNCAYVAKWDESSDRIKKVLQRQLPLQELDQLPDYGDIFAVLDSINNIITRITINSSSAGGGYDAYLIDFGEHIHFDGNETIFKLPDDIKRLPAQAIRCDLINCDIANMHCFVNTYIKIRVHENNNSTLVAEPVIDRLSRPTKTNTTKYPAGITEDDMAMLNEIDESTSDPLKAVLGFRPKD
The experiment in a line: ITC analysis of Krimper eTud1 with Ago3 or Aub peptides. It is filed as binding. The conditions noted are these: Fig. 1f. The text has this: However, the region of Krimper responsible for Ago3 binding remained unknown. To study the Ago3-Krimper interaction, we expressed and purified eTud1 and eTud2 domains of Krimper (Fig. 1c) and tested their binding to peptides derived from the N-terminal Ago3 sequence using isothermal titration calorimetry (ITC) (Fig. 1f and Supplementary Fig. 1a). […] Thus, the two Tudor domains of Krimper have different binding preferences ensuring that Aub and Ago3 can bind Krimper simultaneously without direct competition for a binding site.
Krimper eTud1 (residues 272-512) was cloned into a self-modified pSumo vector with 10×His tag followed by a yeast sumo sequence. The plasmid was transformed into E. coli strain BL21(DE3) Rosseta and cultured at 37 °C in LB medium. The protein expression was induced by adding IPTG to a final concentration of 0.2 mM when the OD600 reached 0.7, and the cells were cooled to 16 °C. The recombinant expressed protein was purified using a HisTrap column (GE Healthcare). The […] plus yeast sumo tag was removed by ulp1 protease digestion followed by a second step HisTrap column (GE Healthcare). The target protein was further purified using MonoQ and Superdex G75 columns (GE Healthcare).
All ITC was performed using the Malvern PEAQ ITC instrument (Malvern) in a buffer of 50 mM NaCl, 20 mM HEPES pH 7.5, and 2 mM β-mercaptoethanol. […]

The target of test [2] is Krimper eTud1 (residues 272-512) (Drosophila melanogaster) (UniProt A1ZAC4). The experiment in a line: ITC; Malvern PEAQ ITC; 50 mM NaCl, 20 mM HEPES pH 7.5, 2 mM β-mercaptoethanol; Krimper Tudor domain with peptides.
The target in the next test is T2, Krimper eTud1ΔC (Drosophila melanogaster, UniProt A1ZAC4).
T2 construct: Krimper contains two extended Tudor domains: eTud1(272-512) and eTud2 (562-746); made in house
It is filed as binding. The conditions noted are these: ITC, Fig. 1f, unmethylated Ago3-2 peptide. Here is the method:
All ITC was performed using the Malvern PEAQ ITC instrument (Malvern) in a buffer of 50 mM NaCl, 20 mM HEPES pH 7.5, and 2 mM β-mercaptoethanol. Data analysis was performed using the Malvern data analysis software and Origin 7.0.

Test [3] deals with T3, Krimper eTud2 (residues 562-746) (Drosophila melanogaster, UniProt A1ZAC4 562-746).
T3 chain: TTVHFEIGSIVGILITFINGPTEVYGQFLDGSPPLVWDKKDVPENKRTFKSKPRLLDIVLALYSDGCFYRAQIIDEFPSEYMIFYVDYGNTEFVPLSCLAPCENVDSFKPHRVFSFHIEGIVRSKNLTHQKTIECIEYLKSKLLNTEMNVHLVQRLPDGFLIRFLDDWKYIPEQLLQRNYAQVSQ
The experiment in a line: ITC; R68me2. (In general: In ITC the heat of successive injections is recorded.)

The target of test [4] is T3, Krimper eTud2 (residues 562-746). The experiment in a line: ITC; R70me2.
Test [5] has the same target. The experiment in a line: ITC; R72me2.
For test [6] the target is unchanged. The experiment in a line: ITC; R15me2.

Turning to “H-NPVIARGRGRGRK-OH [Aub-1, unmethylated peptide from the N-terminal RG-repeat region of Aub used for ITC and structural analysis]”, the “binding to eTud1 (in words)” value in test [1] is listed as “does not detectably interact”. Consider “Ago3-2 peptide (aa residues 63-78 of Ago3) (from UniProt Q7PLK0 63-78)”, for which the dissociation constant (Kd) in test [2] was 62.8 µM. This lies in the double-digit micromolar range.

With NISVGRGRARLIDTLK [Ago3-2], on Krimper eTud1ΔC, the “binding affinity of eTud1 ΔC compared with eTud1 (in words)” value is reported as “higher binding affinity”. NISVG[Arg(Me2s)]GRARLIDTLK [Ago3-2 peptide methylated at R68]: in test [3], binding was put at a Kd of 6.67 µM. Consider NISVGRG[Arg(Me2s)]ARLIDTLK [Ago3-2 peptide methylated at R70], for which the Kd in test [4] is 2.2 µM. For NISVGRGRA[Arg(Me2s)]LIDTLK [Ago3-2 peptide methylated at R72], binding in test [5] was put at a Kd of 34.5 µM. In turn, NPVIARGRGRGRK (also: symmetric dimethylarginine at R15) [Aub-R15me2 peptide] gave a dissociation constant Kd in test [6] of 8.26 µM.

Source of the values: PMC8249470, “Binding of guide piRNA triggers methylation of the unstructured N-terminal region of Aub leading to assembly of the piRNA amplification complex” (Nature Communications, 2021).
